Assay [1] deals with CGRP receptor on human MDA-MB-231BR breast cancer cells (human) (UniProt Q16602). Put plainly: cell-based or functional assay.
In assay [2] the target is CGRP receptor on rat CNS1 glioma cells (rat) (UniProt Q63118). Description: cell-based or functional assay.
CGRP receptor on rat CNS1 glioma cells (rat), sequence (Q63118 24-464, chain 1 of 2): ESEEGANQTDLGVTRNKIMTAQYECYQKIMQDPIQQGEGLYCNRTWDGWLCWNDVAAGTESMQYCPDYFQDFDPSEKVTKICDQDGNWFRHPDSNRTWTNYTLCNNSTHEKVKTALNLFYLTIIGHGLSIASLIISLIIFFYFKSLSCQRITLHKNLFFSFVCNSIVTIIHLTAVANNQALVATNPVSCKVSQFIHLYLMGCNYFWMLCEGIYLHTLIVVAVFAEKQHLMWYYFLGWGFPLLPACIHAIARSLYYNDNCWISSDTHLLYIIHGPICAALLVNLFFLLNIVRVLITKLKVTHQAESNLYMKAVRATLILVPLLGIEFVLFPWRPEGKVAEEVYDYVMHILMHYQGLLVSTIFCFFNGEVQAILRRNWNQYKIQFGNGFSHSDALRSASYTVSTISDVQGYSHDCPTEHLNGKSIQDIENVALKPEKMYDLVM
CGRP receptor on rat CNS1 glioma cells (rat), sequence (Q9JJ74 27-148, chain 2 of 2, further chain): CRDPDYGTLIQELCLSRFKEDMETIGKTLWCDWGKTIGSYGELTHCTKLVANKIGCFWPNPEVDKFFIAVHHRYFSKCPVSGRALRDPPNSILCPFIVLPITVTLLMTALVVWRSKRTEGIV

CGRP receptor on human MDA-MB-231BR breast cancer cells (human), sequence (Q16602 23-461, chain 1 of 2): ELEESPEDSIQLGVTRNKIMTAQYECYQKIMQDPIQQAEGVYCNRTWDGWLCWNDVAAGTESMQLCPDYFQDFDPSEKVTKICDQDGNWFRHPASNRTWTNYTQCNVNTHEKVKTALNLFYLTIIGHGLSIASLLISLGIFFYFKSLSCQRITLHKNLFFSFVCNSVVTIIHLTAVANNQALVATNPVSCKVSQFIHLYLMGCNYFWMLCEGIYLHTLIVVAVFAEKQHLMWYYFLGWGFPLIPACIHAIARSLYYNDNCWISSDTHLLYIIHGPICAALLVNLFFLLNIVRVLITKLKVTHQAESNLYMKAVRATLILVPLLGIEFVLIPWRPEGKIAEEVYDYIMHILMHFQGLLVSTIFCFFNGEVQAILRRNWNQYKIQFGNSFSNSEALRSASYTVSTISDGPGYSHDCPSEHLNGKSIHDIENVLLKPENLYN
CGRP receptor on human MDA-MB-231BR breast cancer cells (human), sequence (O60894 27-148, chain 2 of 2, further chain): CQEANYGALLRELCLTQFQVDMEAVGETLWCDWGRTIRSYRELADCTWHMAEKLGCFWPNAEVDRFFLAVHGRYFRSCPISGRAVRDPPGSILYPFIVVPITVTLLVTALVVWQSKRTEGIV

In assay [1], “calcitonin gene-related peptide (CGRP), unlabeled (from UniProt P01256 83-119)” displayed an MDA-MB-231BR cell growth over control, normoxic conditions, 4 days in culture of 6 fold. In assay [2], the CNS1 cell growth over control, normoxic conditions, 4 days in culture worked out at 4 fold; the CNS1 cell growth over control, normoxic conditions, 5 days in culture was 11 fold; the CNS1 glioma growth over control, hypoxic conditions, 4 days in culture is 72 fold; the CNS1 glioma growth over control, hypoxic conditions, 5 days in culture was 10 fold.

For the origin of these results see patent publication US20110189205A1.
